Data taken from US20170218066A1 (SORRENTO THERAPEUTICS, published 2017).
Changes are numbered by the printed parent chain.

B1: H6B1L-EV (antibody, V domains shown)
VH: QMQLVQSGAEVKKPGSSVKVSCKASGGTFSSYAYSWVRQAPGQGLEWMGGIIPSFGTANYAQKFQGRVTITADESTSTAYMELSSLRSEDTAVYYCARGPIVATITPLDYWGQGTLVTVSS
VL: SYVLMQPPSVSVAPGKTATIACGGENIGRKTVHWYQQKPGQAPVLVIYYDSDRPSGIPERFSGSNSGNTATLTISRVEAGDEADYYCLVWDSSSDHRIFGGGTKLTVL
notes: Fully human antibody of an IgG class, light chain variant of H6B1L
B2: H6B1L (antibody, V domains shown)
VH: B1 VH
VL: B1 VL with V3E
notes: Fully human antibody of an IgG class; also called parent antibody H6B1L; wild type antibody H6B1L
B3: H6B1L-EM (antibody, V domains shown)
VH: B1 VH
VL: B1 VL with M5T
notes: as for B1

biological target: T1, human PD-L1 (human, UniProt Q9NZQ7 19-238, limits assumed); test: Biacore (SPR)
T1 construct: also called Programmed death ligand 1; B7-H1
T1 sequence (Q9NZQ7 19-238 limits assumed): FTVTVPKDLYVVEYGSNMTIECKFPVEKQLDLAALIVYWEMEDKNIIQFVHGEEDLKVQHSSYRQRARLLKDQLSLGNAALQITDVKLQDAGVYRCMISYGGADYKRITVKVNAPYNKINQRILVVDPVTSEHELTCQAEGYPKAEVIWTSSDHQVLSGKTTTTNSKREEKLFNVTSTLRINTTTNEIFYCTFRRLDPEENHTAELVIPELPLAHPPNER

Ka	Kd	koff	kon	Binder
5.48e+08 M⁻¹	1.82 nM	0.00287 s⁻¹	1.57e+06 M⁻¹ s⁻¹	B1
5.4e+08 M⁻¹	1.85 nM	0.0028 s⁻¹	1.51e+06 M⁻¹ s⁻¹	B2
6.44e+08 M⁻¹	1.55 nM	0.00214 s⁻¹	1.38e+06 M⁻¹ s⁻¹	B3
